Experiments:
[1] = target: shrimp hemocyanin (SHC) from Litopenaeus vannamei (Litopenaeus vannamei) (UniProt Q26180); assay: SEC; purified SHC dissolved in PBS, Superdex-200 column, size by standard proteins
[2] = target: shrimp hemocyanin (SHC) from Litopenaeus vannamei (Litopenaeus vannamei) (UniProt Q26180); assay: SEC + other: transmission electron microscopy (uranyl acetate stain); purified SHC in PBS; Superdex-200 elution and particle diameters on a carbon-coated grid (FEI F20, 120 kV), compared with AlphaFold models of monomer and tetramer

## shrimp hemocyanin (SHC) from Litopenaeus vannamei (from UniProt Q26180 1-662) (natural protein)
[1]
  percent of SHC eluting between 158 and 440 kDa: 80%
[2]
  stoichiometry N: 4

Reference: publication PMC11263335
